# Experimental data published in paper PMC5798830, “Hexons from adenovirus serotypes 5 and 48 differentially protect adenovirus vectors from neutralization by mouse and human serum” (PLoS ONE, 2018).
# B1: Ad5.0 vector (adenovirus serotype 5 vector with a wild-type Ad5 capsid) (complex)
# chain: ATPSMMPQWSYMHISGQDASEYLSPGLVQFARATETYFSLNNKFRNPTVAPTHDVTTDRSQRLTLRFIPVDREDTAYSYKARFTLAVGDNRVLDMASTYFDIRGVLDRGPTFKPYSGTAYNALAPKGAPNPCEWDEAATALEINLEEEDDDNEDEVDEQAEQQKTHVFGQAPYSGINITKEGIQIGVEGQTPKYADKTFQPEPQIGESQWYETEINHAAGRVLKKTTPMKPCYGSYAKPTNENGGQGILVKQQNGKLESQVEMQFFSTTEATAGNGDNLTPKVVLYSEDVDIETPDTHISYMPTIKEGNSRELMGQQSMPNRPNYIAFRDNFIGLMYYNSTGNMGVLAGQASQLNAVVDLQDRNTELSYQLLLDSIGDRTRYFSMWNQAVDSYDPDVRIIENHGTEDELPNYCFPLGGVINTETLTKVKPKTGQENGWEKDATEFSDKNEIRVGNNFAMEINLNANLWRNFLYSNIALYLPDKLKYSPSNVKISDNPNTYDYMNKRVVAPGLVDCYINLGARWSLDYMDNVNPFNHHRNAGLRYRSMLLGNGRYVPFHIQVPQKFFAIKNLLLLPGSYTYEWNFRKDVNMVLQSSLGNDLRVDGASIKFDSICLYATFFPMAHNTASTLEAMLRNDTNDQSFNDYLSAANMLYPIPANATNVPISIPSRNWAAFRGWAFTRLKTKETPSLGSGYDPYYTYSGSIPYLDGTFYLNHTFKKVAITFDSSVSWPGNDRLLTPNEFEIKRSVDGEGYNVAQCNMTKDWFLVQMLANYNIGYQGFYIPESYKDRMYSFFRNFQPMSRQVVDDTKYKDYQQVGILHQHNNSGFVGYLAPTMREGQAYPANFPYPLIGKTAVDSITQKKFLCDRTLWRIPFSSNFMSMGALTDLGQNLLYANSAHALDMTFEVDPMDEPTLLYVLFEVFDVVRVHRPHRGVIETVYLRTPFSAGNATT
# Legend:
# [1] = target: T1, mouse coagulation factor X (mouse); assay: SPR; Biacore T200; about 1,200 reference units of Ad5.0, Ad5:H48 or Ad48 particles immobilised on a CM5 chip; FX as analyte at four concentrations (max 42 nM for Ad5.0 and Ad5:H48, 212 nM for Ad48); 10 mM HEPES, 150 mM NaCl, 1 mM CaCl2, 0.5 mM MgCl2, 0.1% BSA, 0.05% polysorbate 20, pH 7.4; 50 uL/min; global fit to a 1:1 kinetic model; conditions: both partners purified
# T1 construct: also called mouse FX; FX; source: bought: Haematologic Technologies, Inc
# [2] = target: T2, human coagulation factor X (human); assay: as above; conditions: both partners purified
# T2 construct: Probably plasma zymogen with Gla residues in the light chain (surmised); also called human FX; FX; source: bought: Haematologic Technologies, Inc
binder,measurement,setting,value
B1,Kd,[1],0.42 nM
same,Kd,[2],0.82 nM
